Test results taken from patent US20210238290A1 (DRAGONFLY THERAPEUTICS, published 2021).
Blank lines part the entries; values can stand above or below the binder they belong to.

Target: T1, human P-cadherin (CDH3) expressed on cancer cell lines HCT116, H1975 and CAL27 (human, UniProt P22223 108-829)
T1 construct: whole, on cells
Assay: flow cytometry on H1975, HCT116 and CAL27 cells, MFI fold over background
From the text: Human P-cadherin (CDH3)-expressing cancer cell lines, HCT116, H1975 and CAL27, were used to assess tumor antigen binding of multi-specific binding proteins having a P-cadherin (CDH3) binding site comprising a heavy chain variable domain sequence identical to SEQ ID NO:196 and a light chain variable domain sequence identical to SEQ ID NO:200 (D153 DB), or a P-cadherin (CDH3) binding site comprising a heavy chain variable domain sequence identical to SEQ ID NO:188 and a light chain variable domain sequence identical to SEQ ID NO:192 (TSP7 DB). Multi-specific binding proteins or corresponding monoclonal antibodies (mAb) having the same P-cadherin (CDH3) binding site were diluted and incubated with the cells. Binding was detected using a fluorophore conjugated anti-human IgG secondary antibody. Cells were analyzed by flow cytometry and binding was expressed as mean fluorescence intensity (MFI) normalized to human recombinant IgG1 stained controls to obtain fold over background (FOB) values.

T1 sequence (P22223 108-829): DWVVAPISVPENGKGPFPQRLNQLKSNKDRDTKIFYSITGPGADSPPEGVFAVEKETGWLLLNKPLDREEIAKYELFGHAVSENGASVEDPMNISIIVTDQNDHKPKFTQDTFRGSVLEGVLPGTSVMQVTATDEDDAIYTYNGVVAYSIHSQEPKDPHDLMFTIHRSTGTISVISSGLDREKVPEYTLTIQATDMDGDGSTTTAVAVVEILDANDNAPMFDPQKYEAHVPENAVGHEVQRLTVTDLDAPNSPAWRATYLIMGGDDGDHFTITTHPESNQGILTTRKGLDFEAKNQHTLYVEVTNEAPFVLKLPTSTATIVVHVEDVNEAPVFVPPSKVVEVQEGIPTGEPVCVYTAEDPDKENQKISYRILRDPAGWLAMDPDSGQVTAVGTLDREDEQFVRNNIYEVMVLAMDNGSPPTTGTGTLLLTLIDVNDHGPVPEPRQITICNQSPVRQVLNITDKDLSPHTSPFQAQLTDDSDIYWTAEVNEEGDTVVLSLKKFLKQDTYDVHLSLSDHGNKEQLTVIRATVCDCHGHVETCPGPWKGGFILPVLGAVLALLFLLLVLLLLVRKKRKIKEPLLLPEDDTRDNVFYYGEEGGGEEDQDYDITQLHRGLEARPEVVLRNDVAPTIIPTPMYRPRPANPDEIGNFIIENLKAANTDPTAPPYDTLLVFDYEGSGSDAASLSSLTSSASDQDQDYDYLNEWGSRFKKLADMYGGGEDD

binding result: binds
B1: anti-P-cadherin mAb (D153 wt mAb) (antibody, V domains shown)
VH: EVQLVQSGAEVKKPGASVKVSCKASGYTFTSYGISWVRQAPGQGLEWMGWISAYNGNTNYAQKLQGRVTMTTDTSTSTAYMELRSLRSDDTAVYYCATIDTANAFGIWGQGTMVTVSS
VL: QSVLTQPPSVSAAPGQKVTISCSGSSSNIGNNYVSWYQQLPGTAPKLLIYDNNKRPSGIPDRFSGSKSGTSATLGITGLQTGDEADYYCGTWDSSLSGVVFGGGTKLTVL
notes: it was detected with an anti-human IgG secondary antibody; also called D153 mAb

binding result: binds
B2: anti-P-cadherin mAb (TSP7 wt mAb) (antibody, V domains shown)
VH: QVQLQESGPELVKPGASVKMSCKASGYSFTAYNMHWVKQSHGKSLEWIGFIDPYSGIITYNQTFKGKATLTVDKSSSTAYMQLNSLTSEDSAVYYCARRGYYDGGFDYWGQGTTLTVSS
VL: DIQMTQTTSSLSASLGDRVTISCRASQDITNYLNWYQQKPDGTVKLLIYYTSRLHSGVPSRFSGSGSGTDYSLTISNLEQEDIATYFCQQDSKHPRTFGGGTKLEIK
notes: it was detected with an anti-human IgG secondary antibody; also called TSP7 mAb
